Measurements as given in US20190270786A1 (PROTAGONIST THERAPEUTICS, published 2019).
Bridge positions count the residues as written; N and C are the ends.

T1: human IL-23 (human, UniProt Q9NPF7 20-189; P29460 23-328)
T1 construct: also called interleukin-23
T1 sequence (looked up) 1: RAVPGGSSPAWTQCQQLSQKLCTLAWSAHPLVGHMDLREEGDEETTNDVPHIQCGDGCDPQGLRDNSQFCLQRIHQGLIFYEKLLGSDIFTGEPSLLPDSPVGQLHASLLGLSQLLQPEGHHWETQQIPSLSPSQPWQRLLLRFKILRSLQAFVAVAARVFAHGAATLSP
T1 sequence (looked up) 2: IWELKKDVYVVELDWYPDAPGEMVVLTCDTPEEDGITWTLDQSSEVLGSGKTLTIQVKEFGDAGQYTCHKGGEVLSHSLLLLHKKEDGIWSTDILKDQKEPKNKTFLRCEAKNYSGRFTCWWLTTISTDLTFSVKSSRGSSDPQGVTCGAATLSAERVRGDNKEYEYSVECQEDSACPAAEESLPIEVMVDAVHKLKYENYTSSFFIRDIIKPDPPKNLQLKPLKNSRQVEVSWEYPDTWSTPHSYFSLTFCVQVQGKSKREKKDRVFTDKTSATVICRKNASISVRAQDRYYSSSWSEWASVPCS

T2: human IL-12 (human, UniProt P29459 23-219; P29460 23-328)
T2 sequence (looked up) 1: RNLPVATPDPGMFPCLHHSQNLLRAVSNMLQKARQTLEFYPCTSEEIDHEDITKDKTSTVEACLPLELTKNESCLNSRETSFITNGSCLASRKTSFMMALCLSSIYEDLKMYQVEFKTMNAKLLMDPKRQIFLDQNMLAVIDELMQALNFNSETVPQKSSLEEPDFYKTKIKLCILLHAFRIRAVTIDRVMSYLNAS
T2 sequence (looked up) 2: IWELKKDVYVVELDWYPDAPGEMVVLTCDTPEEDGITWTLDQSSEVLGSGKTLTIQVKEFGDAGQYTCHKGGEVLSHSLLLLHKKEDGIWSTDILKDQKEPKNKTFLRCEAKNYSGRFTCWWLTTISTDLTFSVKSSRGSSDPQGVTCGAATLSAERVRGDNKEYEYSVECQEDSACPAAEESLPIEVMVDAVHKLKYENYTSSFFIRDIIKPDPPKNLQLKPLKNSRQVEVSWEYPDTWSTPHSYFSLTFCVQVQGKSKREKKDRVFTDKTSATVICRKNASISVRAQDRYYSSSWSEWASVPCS

T3: mouse IL-23 (mouse, UniProt Q9EQ14 22-196; P43432 23-335)
T3 sequence (looked up) 1: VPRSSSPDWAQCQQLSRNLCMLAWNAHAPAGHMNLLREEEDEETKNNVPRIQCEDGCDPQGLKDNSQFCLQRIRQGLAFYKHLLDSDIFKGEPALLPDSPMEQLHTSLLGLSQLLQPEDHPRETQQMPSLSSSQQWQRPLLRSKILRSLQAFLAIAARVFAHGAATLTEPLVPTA
T3 sequence (looked up) 2: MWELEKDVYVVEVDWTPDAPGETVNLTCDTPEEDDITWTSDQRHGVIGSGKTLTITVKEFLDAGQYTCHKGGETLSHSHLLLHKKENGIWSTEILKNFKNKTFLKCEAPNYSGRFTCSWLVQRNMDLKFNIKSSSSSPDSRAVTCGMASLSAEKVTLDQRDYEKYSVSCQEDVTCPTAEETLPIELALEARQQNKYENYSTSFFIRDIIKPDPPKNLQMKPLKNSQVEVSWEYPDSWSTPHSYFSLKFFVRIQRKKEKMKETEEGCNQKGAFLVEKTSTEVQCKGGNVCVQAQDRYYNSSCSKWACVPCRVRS


Legend:
human IL-23 [1] = target: T1, human IL-23; experiment: Human IL23/IL12Rβ1 huFc competition ELISA (IL-12Rβ1_huFC coated, IL-23 at its EC50)
Method: (§1) Human IL-12Rβ1 ELISA assays were performed as follows: an assay plate was coated with 100 ng/well of human IL-12Rβ1_huFC and incubated overnight at 4° C. The wells were washed, blocked, and washed again. […] Signals were visualized with TMB One Component HRP Membrane Substrate and quenched with 2 M sulfuric acid.

human IL-12 = target: T2, human IL-12; experiment: Human IL12/IL12Rβ1 huFc competition ELISA (IL-12Rβ1_huFC coated, IL-12 at its EC50)
Method: as §1

human IL-23 [2] = target: T1, human IL-23; experiment: Human IL23/IL23R huFc competition ELISA
Method: (§2) Immulon® 4HBX plate was coated with 200 ng/well of IL23R_huFC and incubated overnight at 4° C. The wells were washed three times with PBST, blocked with PBS containing 5% PhosphoBLOCKER (Cell Biolabs #AKR-103) for 1 hour at room temperature, and washed again three times with PBST. […] The wells were again washed four times with PBST. The secondary antibodies, HRP conjugated donkey anti-goat IgG (Jackson ImmunoResearch Laboratories #705-035-147) diluted 1:5000 in PBS, was then added and incubated for 30 minutes at room temperature. The plate was finally washed as above. Signals were visualized with TMB One Component HRP Membrane Substrate, quenched with 2 M sulfuric acid and read spectrophotometrically at 450 nm.

human IL-23 [3] = target: T1, human IL-23; experiment: cell-based or functional assay
mouse IL-23 = target: T3, mouse IL-23; experiment: Mouse IL23/IL23R huFc competition ELISA
human IL-23 [4] = target: T1, human IL-23; experiment: IL23-IL23R competitive binding ELISA (IL23R_huFC coated, 0.9 nM IL-23, peptide titrated); bin by the legend in paragraph 291
Method: as §2

Binder	IC50 (human IL-23 [1])	IC50 (human IL-12) [µM]	IC50 (human IL-23 [2]) [µM]	Mouse splenocyte assay: IC50 of IL-23-dependent IL-17A release (human IL-23 [3]) [µM]	IC50 (mouse IL-23) [µM]	IC50 (human IL-23 [4]) [µM]
Ac-FNMQCLRRMSEAGVDPNLNQEQRWAKIKSIMDDC-NH2 (disulfide 5-34; SMILES CC[C@H](C)[C@@H]1NC(=O)[C@H](CCCCN)NC(=O)[C@H](C)NC(=O)[C@H](Cc2c[nH]c3ccccc23)NC(=O)[C@H](CCCNC(=N)N)NC(=O)[C@H](CCC(N)=O)NC(=O)[C@H](CCC(=O)O)NC(=O)[C@H](CCC(N)=O)NC(=O)[C@H](CC(N)=O)NC(=O)[C@H](CC(C)C)NC(=O)[C@H](CC(N)=O)NC(=O)[C@@H]2CCCN2C(=O)[C@H](CC(=O)O)NC(=O)[C@H](C(C)C)NC(=O)CNC(=O)[C@H](C)NC(=O)[C@H](CCC(=O)O)NC(=O)[C@H](CO)NC(=O)[C@H](CCSC)NC(=O)[C@H](CCCNC(=N)N)NC(=O)[C@H](CCCNC(=N)N)NC(=O)[C@H](CC(C)C)NC(=O)[C@@H](NC(=O)[C@H](CCC(N)=O)NC(=O)[C@H](CCSC)NC(=O)[C@H](CC(N)=O)NC(=O)[C@H](Cc2ccccc2)NC(C)=O)CSSC[C@@H](C(N)=O)NC(=O)[C@H](CC(=O)O)NC(=O)[C@H](CC(=O)O)NC(=O)[C@H](CCSC)NC(=O)[C@H]([C@@H](C)CC)NC(=O)[C@H](CO)NC(=O)[C@H](CCCCN)NC1=O, Synthetic peptide) [Peptide 10]	> 100 µM	> 100	3.3	1.6	3.6	–
Ac-FNMQCLRRMAEAGVDPNLNQEQRWAKIKSIMDDC-NH2 (disulfide 5-34; SMILES CC[C@H](C)[C@@H]1NC(=O)[C@H](CCCCN)NC(=O)[C@H](C)NC(=O)[C@H](Cc2c[nH]c3ccccc23)NC(=O)[C@H](CCCNC(=N)N)NC(=O)[C@H](CCC(N)=O)NC(=O)[C@H](CCC(=O)O)NC(=O)[C@H](CCC(N)=O)NC(=O)[C@H](CC(N)=O)NC(=O)[C@H](CC(C)C)NC(=O)[C@H](CC(N)=O)NC(=O)[C@@H]2CCCN2C(=O)[C@H](CC(=O)O)NC(=O)[C@H](C(C)C)NC(=O)CNC(=O)[C@H](C)NC(=O)[C@H](CCC(=O)O)NC(=O)[C@H](C)NC(=O)[C@H](CCSC)NC(=O)[C@H](CCCNC(=N)N)NC(=O)[C@H](CCCNC(=N)N)NC(=O)[C@H](CC(C)C)NC(=O)[C@@H](NC(=O)[C@H](CCC(N)=O)NC(=O)[C@H](CCSC)NC(=O)[C@H](CC(N)=O)NC(=O)[C@H](Cc2ccccc2)NC(C)=O)CSSC[C@@H](C(N)=O)NC(=O)[C@H](CC(=O)O)NC(=O)[C@H](CC(=O)O)NC(=O)[C@H](CCSC)NC(=O)[C@H]([C@@H](C)CC)NC(=O)[C@H](CO)NC(=O)[C@H](CCCCN)NC1=O, Synthetic peptide) [Peptide 13]	–	–	–	–	–	≤ 1
Ustekinumab (antibody, V domains shown) VH: EVQLVQSGAEVKKPGESLKISCKGSGYSFTTYWLGWVRQMPGKGLDWIGIMSPVDSDIRYSPSFQGQVTMSVDKSITTAYLQWNSLKASDTAMYYCARRRPGQGYFDFWGQGTLVTVSS VL: DIQMTQSPSSLSASVGDRVTITCRASQGISSWLAWYQQKPEKAPKSLIYAASSLQSGVPSRFSGSGSGTDFTLTISSLQPEDFATYYCQQYNIYPYTFGQGTKLEIK	0.14 µg/mL	–	–	–	–	–
